{"source": "patent US20140072553A1", "about": "(MORPHOTEK, published 2014)", "binders": {"B1": {"name": "human anti-SEB monoclonal antibody 79G9 (antibody, V domains shown)", "VH": "EVQLEESGAGLLKPSETLSLTCAVYGGSFSGYYWSWIRQAPGKGLEWIGEIDHSGTTNYNPSLKSRVTISVETSKNQFSLRLSSVTAADSAVYYCASSGYCSHGLCPQEDWGQGTLVTVSS", "VL": "DIELTQSPSFLSASVGDRVAITCRASQGISNYLAWYQQKPGKAPKLLIYAAFVLQSGVPSRFSGSGSGTEFTLTISNLQPEDFATYYCQQLNSYPRAFGPGTKVDIKR"}, "B2": {"name": "human anti-SEB monoclonal antibody 100C9 (antibody, V domains shown)", "VH": "EVQLVESGGGLVQPGGSLRLSCSASGFTFSSYWMSWVRQAPGKGLEWVANIIQDGSEKYYADSVKGRLTISRDNAKNSLYLQMNSLRVDDTAVYYCARGYEGCSATRCYLYYFDYWGPGTLVTVSS", "VL": "SYVLTQPPSVSVSPGQTARITCSGDALPKQYTYWYQQKPGQAPVVVIYKDSERPSGIPERFSGSSSGTTVTVTISGVQAEDEADYYCQSADSSGTSLVFGGGTKLTVLG"}}, "key": {"[1]": {"biological_target": "T1, Staphylococcus enterotoxin B (Staphylococcus aureus, UniProt P01552 28-266)", "T1 sequence": "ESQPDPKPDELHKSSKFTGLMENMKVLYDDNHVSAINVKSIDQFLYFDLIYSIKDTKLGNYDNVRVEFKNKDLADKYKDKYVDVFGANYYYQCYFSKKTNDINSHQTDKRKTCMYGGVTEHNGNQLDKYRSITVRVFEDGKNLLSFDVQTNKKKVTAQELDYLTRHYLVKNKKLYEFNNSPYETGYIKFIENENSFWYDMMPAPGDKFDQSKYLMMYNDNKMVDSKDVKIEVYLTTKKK"}, "[2]": {"biological_target": "T1, Staphylococcus enterotoxin B", "assay": "cell-based or functional assay"}, "[3]": {"biological_target": "T1, Staphylococcus enterotoxin B", "assay": "cell-based or functional assay", "remark": "listed apart in the source"}}, "note": "Read-outs that look alike come from different tables or passages of the source."}
{"binder": "B1", "values": [{"measurement": "Kd", "setting": "[1]", "value": 25, "unit": "nM"}, {"measurement": "EC50 of inhibition of SEB-induced IFN-γ production by human PBMC", "setting": "[2]", "value": 0.125, "unit": "µg/mL"}, {"measurement": "EC50 of inhibition of SEB-induced IFN-γ production by human PBMC", "setting": "[3]", "value": 0.158, "unit": "µg/mL"}, {"measurement": "EC50 of inhibition of SEB-induced TNF-α production by human PBMC", "setting": "[3]", "value": 0.217, "unit": "µg/mL"}]}
{"binder": "B2", "values": [{"measurement": "Kd", "setting": "[1]", "value": 9.75, "unit": "nM"}, {"measurement": "EC50 of inhibition of SEB-induced IFN-γ production by human PBMC", "setting": "[2]", "value": 0.0766, "unit": "µg/mL"}]}
